In patent US20190314260A1, “ENGINEERED TREATMENTS FOR HAIR REPAIR AND LONG-LASTING COLOR RETENTION” (Massachusetts Institute of Technology, priority 2018, published 2019):
No end group written: not given here.

Key:
[1] = tested on: exposed keratin proteins on damaged hair; test: keratin binding domain absorption test (FITC-conjugated peptides, fluorescence microscopy), damaged hair; details: FITC conjugate, 37° C. for 1 hr, hair washed 10 times
Excerpt: (§1) The peptide-FITC conjugate is not seen on healthy hair because the hydrophobic surface of healthy hair cuticles prevents binding of the peptide. However, peptide-FITC conjugates are shown to be absorbed in damaged hair because the peptide bonds to exposed keratin proteins on damaged hair shafts. […] This is due to binding of the C-terminal cysteine present on Peptide 2 to the exposed keratin protein on the damaged hair.
To provide damaged hair for treatment using the exemplary engineered keratin-binding construct, hair was incubated with 10% H2O2(v/v) in 0.1M Na2CO3/NaHCO3 (pH 9.0) buffer at 50° C. for 1 hr, and then the hairs were washed in deionized (DI) water.
(§2) Samples of healthy and damaged hair were incubated with the FITC-conjugated peptides at 37° C. for 1 hr, followed by washing the hair 10 times (FIG. 5). The results are provided in the images obtained by fluorescent microscopy shown in the right part of FIG. 5.

[2] = keratin binding domain absorption test (FITC-conjugated peptides, fluorescence microscopy), healthy hair; details: FITC conjugate, 37° C. for 1 hr, hair washed 10 times
Procedure: as §1, §2

NIH3T3 fibroblast cell = test: MTT assay, NIH3T3 fibroblast cell viability; assay type: cell-based; details: in the presence of the protein
damaged hair = test: affinity of keratin binding protein tagged with a fluorescent dye for damaged and undamaged hair (fluorescence microscopy)
Procedure: Keratin binding protein tagged with a fluorescent dye was incubated with damaged and undamaged (virgin) hair, and observed by fluorescence microscopy. The results are depicted in FIG. 8, with microscopy images shown on the left and intensity of corrected fluorescence shown on the right. Corrected fluorescence=Integrated Density−(selected area X Mean fluorescence of background).
The damaged hair incubated with keratin binding protein tagged with a fluorescent dye for varying amounts of time was then subjected to washing with shampoo.

IL-6 in fibroblast cells = test: IL-6 ELISA (immune response); assay type: cell-based; details: LPS positive control
Procedure: (§3) Keratin-binding protein (B22) was tested for immune response by performing an IL-6 ELISA and IFN-γ ELISA. The effects of KBP and KBP-lipid conjugate on the immune response was assessed by measuring levels of IL-6 and IFN-γ in fibroblast cells. No protein was added to the cells as a negative control. Lipopolysaccharides (LPS) were used as a positive control.

[3] = tested on: IFN-γ in fibroblast cells; test: IFN-γ ELISA (immune response); assay type: cell-based; details: LPS positive control
Procedure: as §3

[4] = solubility test in oil-based solvents; assay type: physicochemical; details: 2.5 mg protein/10 mL solvent
Procedure: Solubility tests were performed by adding keratin-binding protein to 7 different solvents at concentrations of 2.5 mg protein/10 mL solvent. […] KBP was soluble in polysorbate 40 (Tween® 40) and Solubilisant CLR, with only a few visible particles present in solution.

With “Peptide 2: same keratin binding domain as peptide 1 plus a C-terminal cysteine, AKTKKVELFPKC; SEQ ID NO: 5” the “affinity to damaged hair compared to Peptide 1” value [1] was “higher affinity” and the “binding affinity to the damaged hair” value [1] was “strong binding affinity”.

In the case of “peptide1-FITC: Peptide1 (AKTKKVELFPK) conjugated to fluorescein isothiocyanate (FITC) (also: FITC conjugate, site not given here)”, the “binding to healthy hair” value [2] is reported as “Neither peptide1-FITC nor peptide1-FITC is shown as binding”.

B1: KBP: engineered keratin-binding protein without tyrosine residues; keratin-binding domain SEQ ID NO: 1 repeated three times, expressed in E. coli (protein)
chain: MAKTHHHHHHQGQVQHLQAAFSQYKKVELFPKGGQGQVQHLQAAFSQYKKVELFPKGGQGQVQHLQAAFSQYKKVELFPKGGYYYYC
For B1, the “NIH3T3 fibroblast cell viability” value (NIH3T3 fibroblast cell) was “increased”, the “binding to damaged hair versus healthy hair” value (damaged hair) was “binds more readily to damaged hair” and the “production of IL-6” value (IL-6 in fibroblast cells) was “No production”. The “production of IFN-γ” value [3] was “No production”, the “solubility in butylene glycol” value [4] was “not soluble” and the solubility in glycerin [4] was “not soluble”. For the same molecule, the “solubility in hexylene glycol” value [4] was “not soluble”, the “solubility in polysorbate 20 (Tween® 20)” value [4] was “not soluble” and the “solubility in Solubilisant CLR” value ([4]; only a few visible particles) was “soluble”. The “solubility in polysorbate 40 (Tween® 40)” value ([4]; only a few visible particles) was “soluble”.

B2: KBPY: keratin-binding protein with tyrosine residues, SEQ ID NO: 2: MAKT-6His-three keratin-binding domain repeats-YYYYC (protein)
chain: B1 chain
With B2 the “NIH3T3 fibroblast cell viability” value (NIH3T3 fibroblast cell) was “increased”.
